Source: US20170037129A1

Experiments:
[1] = target: endogenous human CD147 expressed on human cancer cells (human) (UniProt P35613); experiment: flow cytometry on A549 cells
[2] = target: endogenous human CD147 expressed on human cancer cells (human) (UniProt P35613); experiment: flow cytometry on PC-3 cells
[3] = target: endogenous human CD147 expressed on human cancer cells (human) (UniProt P35613); experiment: flow cytometry on K562 cells

B1: C4R1B2 (antibody, V domains shown)
VH: QVQLVQSGAEVKKPGASVKVSCKASGYGFTSYAIHWLRQAPGQRLEWMGWINPGNGNTKYSQKFQGRVTITRDTSATTAYMELTSLRSEDSDTAVYYCARDLDGGSFDHWGQGTLVTVSS
VL: QSVVTQPASVSGSPGQSITISCTGTSSDVGSYNLVSWYQQHPGKAPKLMIYDVTNRPSGVSNRFSGSKSGNTASLTISGLQAEDEADYYCSSYTRSSTYVFGTGTKVTVL
- EC50 [1]: 83.8 nM
- EC50 [2]: > 100 nM
- EC50 [3]: 168 nM

B2: C4sh1B2 (antibody, V domains shown)
VH: QMQLVQSGAEVKKPGASVKVSCKASGYTFTGYYIHWVRQAPGQGLEWMGWINPNSGGTIYAQKFQGRVTMTRDTSISTAYMELSRLRSDDTAVYYCARGSTNFDSWGQGTLVTVSS
VL: QAGLTQPPSASGSPGQSVTISCTGTSSDVGGYNSVSWYQQHPGKAPKLMIYDVSNRPSGVSNRFSGSKSGNTASLTISGLQAEDEADYYCSSYINSGTLVFGGGTKLTVL
- EC50 [1]: 3.73 nM
- EC50 [2]: 4.5 nM
- EC50 [3]: 1.55 nM

B3: C4sh1A6 (antibody, V domains shown)
VH: QVQLVESGGGVVQPGRSLRLSCAASGFTFSTYAMHWVRQAPGRGLEWVAGISYDGSNKYHADPVKGRFTISRDNSKNTLYLQMNNLRVEDSAVYYCAGDRSGGLDVWGQGTTVTVSS
VL: DIVMTQSPSSLSASVGDRVTITCRASQGISNSLAWYQQKSGKAPKLLLYAASGLESGVPSRFSGSGSGTDYTLTISSLQPEDFATYYCQQSYSMPLTFGGGTKVEIK
- EC50 [1]: 35.9 nM
- EC50 [2]: > 100 nM
- EC50 [3]: 0.6 nM
